T1: PTP HSCF (Mus musculus, UniProt Q61152)
T1 construct: the PST (and C-terminal homolog) of PTP HSCF (amino acids 304-453); made in house; host or cells: E. coli DH5-alpha
T1 sequence (Q61152 304-453): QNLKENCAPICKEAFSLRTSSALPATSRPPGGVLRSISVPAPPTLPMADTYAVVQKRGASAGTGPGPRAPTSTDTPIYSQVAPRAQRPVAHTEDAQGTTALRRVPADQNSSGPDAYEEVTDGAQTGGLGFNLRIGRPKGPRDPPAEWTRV


What follows are molecules tested against T1, PTP HSCF (assay: In vitro GST pull-down binding of PST PIP forms to PTP HSCF). Details: in vitro.
Experimental: The binding was carried out according to the method of Wong and Johnson (Wong et al., J. Biol. Chem. 271(35):20981-20984 (1996)). Briefly, 1 μg of plasmid with either the PSTPIP protein or PTP HSCF under the control of the Sp6 promoter was in vitro transcribed/translated using the Promega™ TnT Rabbit Reticulocyte™ system. Samples were diluted in 50 mM HEPES, pH 7.2, 1% triton X 100, 10% glycerol, 100 mM NaCl, 5 mM EDTA and 2 μg/ml each of leupeptin, pepstatin, aprotinin, and PMSF. […] This was reacted for 1 hour at 4° C. and then the resin washed 6 times in HEPES/Triton binding buffer before SDS gel electrophoresis. The peptides were synthesized on an automated Milligen 9050 Peptide Synthesizer using standard solid phase chemistry with FMOC protected amino acids on a p-alkoxybenzyl alcohol resin. Dried peptides were re-suspended in the HEPES/Triton Binding buffer at a concentration of 10 mg/ml. Peptide inhibition was performed by adding the peptide first to the in vitro translation product and then the GST-fusion followed by the GSH-Sepharose. The binding/washing steps were as previously described. The peptides synthesized and the PTPs they were derived from were: • PXXP-HSCF: 432[…]451 (PTP HSCF) (SEQ ID NO:20), • PXXP-PEP: 782GFGNRFSKPKGPRNPPSAW800 (PTP PEP) (SEQ ID NO:21), • PXXP-PEST: 761[…]780 (PTP PEST) SEQ ID NO:22), • PXXP-CONTROL: 334[…]353 (PTP HSCF) (SEQ ID NO:23).
In vitro binding analyses between various PTP HSCF and PST PIP constructs were performed as previously described (Spencer et al, (1997), supra). Briefly, plasmids were transcribed and translated in vitro using the TnT Rabbit Reticulocyte Lysate System (Promega). Samples were diluted in 50 mM HEPES, pH 7.2, 1% triton X-100, 10% glycerol, 100 mM NaCl, and 2 μg/ml each of leupeptin, pepstatin, aprotinin and PMSF (lysis buffer). Samples were than reacted with GST fusion proteins at various concentrations, and the bound proteins were centrifuged using glutathione-sepharose beads and analyzed on SDS polyacrylamide gels. C-terminally-derived peptide inhibition studies were performed by incubating the GST fusion protein binding reactions in the presence of 10 μg/ml of the indicated peptides. Peptides were produced by FMOC-protected amino acids as previously described (Spencer et al, (1997), supra). In vivo interactions between various forms of PTP HSCF and PST PIP were also performed as previously described (Spencer et al, (1997), supra). Briefly, COS cells were transfected with various constructs, and after 48 hours, lysates were prepared and immunoprecipitated with antibodies to either the FLAG epitope contained at the C-terminus of PST PIP or an HA epitope contained at the N-terminus of PTP HSCF. The resultant blots were probed with anti-FLAG to detect PST PIP, anti-HA to detect PTP HSCF or anti-phosphotyrosine to detect levels of this modified amino acid in each protein.

Row | Molecule | binding of in vitro translated PST PIP forms to GST fusion of C-terminal 149 amino acids of PTP HSCF
1 | amino acids 1-264 of the coiled coil domain: form of PST PIP containing amino acids 1-264 | binding of PTP HSCF could be obtained
2 | I122MD: PST PIP clustered alanine substitution starting at I122 (protein) MMAQLQFRDAFWCRDFTAHTGYEVLLQRLLDGRKMCKDVEELLRQRAQAEERYGKELVQIARKAGGQTEMNSLRTSFDSLKQQTENVGSAHIQLALALREELRSLEEFRERQKEQRKKYEAAAARVQKSKLSLYKKTMESKKAYDQKCRDADDAEQAFERVSANGHQKQVEKSQNKAKQCKESATEAERVYRQNIEQLERARTEWEQEHRTTCEAFQLQEFDRLTILRNALWVHCNQLSMQCVKDDELYEEVRLTLEGCDVEGDINGFIQSKSTGREPPAPVPYQNYYDREVTPLIGSPSIQPSCGVIKRFSGLLHGSPKTTPSAPAASTETLTPTPERNELVYASIEVQATQGNLNSSAQDYRALYDYTAQNSDELDISAGDILAVILEGEDGWWTVERNGQRGFVPGSYLEKLDYKDDDDK | either no or a minor change in the binding activity
3 | L133YK: PST PIP clustered alanine substitution starting at L133 (protein) MMAQLQFRDAFWCRDFTAHTGYEVLLQRLLDGRKMCKDVEELLRQRAQAEERYGKELVQIARKAGGQTEMNSLRTSFDSLKQQTENVGSAHIQLALALREELRSLEEFRERQKEQRKKYEAIMDRVQKSKLSAAAKTMESKKAYDQKCRDADDAEQAFERVSANGHQKQVEKSQNKAKQCKESATEAERVYRQNIEQLERARTEWEQEHRTTCEAFQLQEFDRLTILRNALWVHCNQLSMQCVKDDELYEEVRLTLEGCDVEGDINGFIQSKSTGREPPAPVPYQNYYDREVTPLIGSPSIQPSCGVIKRFSGLLHGSPKTTPSAPAASTETLTPTPERNELVYASIEVQATQGNLNSSAQDYRALYDYTAQNSDELDISAGDILAVILEGEDGWWTVERNGQRGFVPGSYLEKLDYKDDDDK | either no or a minor change in the binding activity
4 | D145QK: PST PIP clustered alanine substitution starting at D145 (protein) MMAQLQFRDAFWCRDFTAHTGYEVLLQRLLDGRKMCKDVEELLRQRAQAEERYGKELVQIARKAGGQTEMNSLRTSFDSLKQQTENVGSAHIQLALALREELRSLEEFRERQKEQRKKYEAIMDRVQKSKLSLYKKTMESKKAYAAACRDADDAEQAFERVSANGHQKQVEKSQNKAKQCKESATEAERVYRQNIEQLERARTEWEQEHRTTCEAFQLQEFDRLTILRNALWVHCNQLSMQCVKDDELYEEVRLTLEGCDVEGDINGFIQSKSTGREPPAPVPYQNYYDREVTPLIGSPSIQPSCGVIKRFSGLLHGSPKTTPSAPAASTETLTPTPERNELVYASIEVQATQGNLNSSAQDYRALYDYTAQNSDELDISAGDILAVILEGEDGWWTVERNGQRGFVPGSYLEKLDYKDDDDK | either no or a minor change in the binding activity
5 | F221: PST PIP with phenylalanine 221 mutated to alanine (protein) MMAQLQFRDAFWCRDFTAHTGYEVLLQRLLDGRKMCKDVEELLRQRAQAEERYGKELVQIARKAGGQTEMNSLRTSFDSLKQQTENVGSAHIQLALALREELRSLEEFRERQKEQRKKYEAIMDRVQKSKLSLYKKTMESKKAYDQKCRDADDAEQAFERVSANGHQKQVEKSQNKAKQCKESATEAERVYRQNIEQLERARTEWEQEHRTTCEAFQLQEADRLTILRNALWVHCNQLSMQCVKDDELYEEVRLTLEGCDVEGDINGFIQSKSTGREPPAPVPYQNYYDREVTPLIGSPSIQPSCGVIKRFSGLLHGSPKTTPSAPAASTETLTPTPERNELVYASIEVQATQGNLNSSAQDYRALYDYTAQNSDELDISAGDILAVILEGEDGWWTVERNGQRGFVPGSYLEKLDYKDDDDK | no effect on PTP HSCF binding was observed
6 | Q169VE: PST PIP clustered alanine substitution starting at Q169 (protein) MMAQLQFRDAFWCRDFTAHTGYEVLLQRLLDGRKMCKDVEELLRQRAQAEERYGKELVQIARKAGGQTEMNSLRTSFDSLKQQTENVGSAHIQLALALREELRSLEEFRERQKEQRKKYEAIMDRVQKSKLSLYKKTMESKKAYDQKCRDADDAEQAFERVSANGHQKAAAKSQNKAKQCKESATEAERVYRQNIEQLERARTEWEQEHRTTCEAFQLQEFDRLTILRNALWVHCNQLSMQCVKDDELYEEVRLTLEGCDVEGDINGFIQSKSTGREPPAPVPYQNYYDREVTPLIGSPSIQPSCGVIKRFSGLLHGSPKTTPSAPAASTETLTPTPERNELVYASIEVQATQGNLNSSAQDYRALYDYTAQNSDELDISAGDILAVILEGEDGWWTVERNGQRGFVPGSYLEKLDYKDDDDK | either no or a minor change in the binding activity
7 | E159RV: PST PIP clustered alanine substitution starting at E159 (protein) MMAQLQFRDAFWCRDFTAHTGYEVLLQRLLDGRKMCKDVEELLRQRAQAEERYGKELVQIARKAGGQTEMNSLRTSFDSLKQQTENVGSAHIQLALALREELRSLEEFRERQKEQRKKYEAIMDRVQKSKLSLYKKTMESKKAYDQKCRDADDAEQAFAAASANGHQKQVEKSQNKAKQCKESATEAERVYRQNIEQLERARTEWEQEHRTTCEAFQLQEFDRLTILRNALWVHCNQLSMQCVKDDELYEEVRLTLEGCDVEGDINGFIQSKSTGREPPAPVPYQNYYDREVTPLIGSPSIQPSCGVIKRFSGLLHGSPKTTPSAPAASTETLTPTPERNELVYASIEVQATQGNLNSSAQDYRALYDYTAQNSDELDISAGDILAVILEGEDGWWTVERNGQRGFVPGSYLEKLDYKDDDDK | either no or a minor change in the binding activity
8 | tryptophan at position 205: PST PIP with tryptophan 205 mutated to alanine (protein, Mus Musculus, PST PIP with tryptophan 205 mutated to alanine) MMAQLQFRDAFWCRDFTAHTGYEVLLQRLLDGRKMCKDVEELLRQRAQAEERYGKELVQIARKAGGQTEMNSLRTSFDSLKQQTENVGSAHIQLALALREELRSLEEFRERQKEQRKKYEAIMDRVQKSKLSLYKKTMESKKAYDQKCRDADDAEQAFERVSANGHQKQVEKSQNKAKQCKESATEAERVYRQNIEQLERARTEAEQEHRTTCEAFQLQEFDRLTILRNALWVHCNQLSMQCVKDDELYEEVRLTLEGCDVEGDINGFIQSKSTGREPPAPVPYQNYYDREVTPLIGSPSIQPSCGVIKRFSGLLHGSPKTTPSAPAASTETLTPTPERNELVYASIEVQATQGNLNSSAQDYRALYDYTAQNSDELDISAGDILAVILEGEDGWWTVERNGQRGFVPGSYLEKL | no effect on PTP HSCF binding was observed

Same assay, conditions: ~1 microgram per ml GST fusion protein

Row | Molecule | precipitation of in vitro translated PTP HSCF by GST fusions of PSTPIP or its domains
9 | SH3 region: GST fusion containing the SH3 domain of PSTPIP | not the SH3 region
10 | coiled coil domain: GST fusion containing the coiled coil domain of PSTPIP | mediated by the coiled coil domain

From patent US6887705B1, “Tyrosine phosphorylated cleavage furrow-associated proteins (PSTPIPs)” (Genentech, Inc., priority 1997, dated 2005)
